Results on 2 molecules are retold here after article PMC10450195, “Histone divergence in trypanosomes results in unique alterations to nucleosome structure” (Nucleic Acids Research, 2023).

The chains are these.
T1: Trypanosoma brucei histone H2A (Trypanosoma brucei brucei, UniProt Q57YA3 2-134)
T1 construct: also called Tb H2A
T1 sequence: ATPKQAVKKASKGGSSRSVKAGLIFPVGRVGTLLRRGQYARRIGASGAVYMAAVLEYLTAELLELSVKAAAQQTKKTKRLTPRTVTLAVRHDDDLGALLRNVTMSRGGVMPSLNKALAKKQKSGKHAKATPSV

B1: Trypanosoma brucei histone H2B (natural protein, Trypanosoma brucei brucei)
chain: ATPKSTPAKTRKEAKKTRRQRKRTWNVYVSRSLRSINSQMSMTSRTMKIVNSFVNDLFERIAAEAATIVRVNRKRTLGARELQTAVRLVLPADLAKHAMAEGTKAVSHASS
notes: also called Tb H2B
B2: Trypanosoma brucei histone H4 (natural protein)
chain: not shown
notes: also called Tb H4

For experiment [1], the target named is T1, Trypanosoma brucei histone H2A. Kind of experiment: cryo-EM structure. As to conditions: both partners purified.
Experiment [2] has as its target B1. Kind of experiment: cryo-EM structure. As to conditions: both partners purified.

Take B1: the binding result in experiment [1] is “binds”.

On to B2, for which the binding result in experiment [2] is “binds”.
